{"source": "patent US20230051304A1", "about": "(Regeneron, published 2023)", "binders": {"B1": {"name": "Fc-IL12(mutein 12) (Fc fusion)", "chain": "ESKYGPPCPPCPAPPVAGPSVFLFPPKPKDTLMISRTPEVTCVVVDVSQEDPEVQFNWYVDGVEVHNAKTKPREEQFNSTYRVVSVLTVLHQDWLNGKEYKCKVSNKGLPSSIEKTISKAKGQPREPQVYTLPPSQEEMTKNQVSLTCLVKGFYPSDIAVEWESNGQPENNYKTTPPVLDSDGSFFLYSRLTVDKSRWQEGNVFSCSVMHEALHNHYTQKSLSLSLGKGGGGSGGGGSGGGGSNGIWSTEILKNFKNKTFLKCEAPNYSGRFTCSWLVQRNMDLKFNIKSSSSSPDSRAVTCGMASLSAEKVTLDQRDYEKYSVSCQEDVTCPTAEETLPIELALEARQQNKYENYSTSFFIRDIIKPDPPKNLQMKPLKNSQVEVSWEYPDSWSTPHSYFSLKFFVRIQRKKEKMKETEEGCNQKGAFLVEKTSTEVQCKGGNVCVQAQDRYYNSSCSKWACVPCRVRSGGGGSGGGGSGGGGSRVIPVSGPARCLSQSRNLLKTTDDMVKTAREKLKHYSCTAEDIDHEDITRDQTSTLKTCLPLELHKNESCLATRETSSTTRGSCLPPQKTSLMMTLCLGSIYEDLKMYQTEFQAINAALQNHNHQQIILDKGMLVAIDELMQSLNHNGETLRQKPPVGEADPYRVKMKLCILLHAFSTRVVTINRVMGYLSSA"}, "B2": {"name": "Fc-IL12(mutein 1) (Fc fusion)", "chain": "ESKYGPPCPPCPAPPVAGPSVFLFPPKPKDTLMISRTPEVTCVVVDVSQEDPEVQFNWYVDGVEVHNAKTKPREEQFNSTYRVVSVLTVLHQDWLNGKEYKCKVSNKGLPSSIEKTISKAKGQPREPQVYTLPPSQEEMTKNQVSLTCLVKGFYPSDIAVEWESNGQPENNYKTTPPVLDSDGSFFLYSRLTVDKSRWQEGNVFSCSVMHEALHNHYTQKSLSLSLGKGGGGSGGGGSGGGGSMWELEKDVYVVEVDWTPDAPGETVNLTCDTPEEDDITWTSDQRHGVIGSGKTLTITVKEFLDAGQYTCHKGGETLSHSHLLLHKKENGIWSTEILKNFKNKTFLKCEAPNYSGRFTCSWLVQRNMDLKFNIKSSSSSPDSRAVTCGMASLSAEKVTLDQRDYEKYSVSCQEDVTCPTAEETLPIELALEARQQNKYENYSTSFFIRDIIKPDPPKNLQMKPLKNSQVEVSWEYPDSWSTPHSYFSLKFFVRIQRKKEKMKETEEGCNQKGAFLVEKTSTEVQCKGGNVCVQAQDRYYNSSCSKWACVPCRVRSGGGGSGGGGSGGGGSRVIPVSGPARCLSQSRNLLKTTDDMVKTAREKLKHYSCTAEDIDHEDITRDQTSTLKTCLPLELHKNESCLATRETSSTTRGSCLPPQKTSLMMTLCLGSIYEDLKMYQTEFQAINAALQNHNHQQIILDKGMLVAIDELMQSLNHNGETLRQKPPVGEADPARVKMKLCILLHAFSTRVVTINRVMGYLSSA"}, "B3": {"name": "Fc-IL12(mutein 8) (Fc fusion)", "chain": "ESKYGPPCPPCPAPPVAGPSVFLFPPKPKDTLMISRTPEVTCVVVDVSQEDPEVQFNWYVDGVEVHNAKTKPREEQFNSTYRVVSVLTVLHQDWLNGKEYKCKVSNKGLPSSIEKTISKAKGQPREPQVYTLPPSQEEMTKNQVSLTCLVKGFYPSDIAVEWESNGQPENNYKTTPPVLDSDGSFFLYSRLTVDKSRWQEGNVFSCSVMHEALHNHYTQKSLSLSLGKGGGGSGGGGSGGGGSMWELEKDVYVVEVDATPDAPGETVNLTCDTPEEDDITWTSDQRHGVIGSGKTLTITVKEFLDAGQYTCHKGGETLSHSHLLLHKKENGIWSTEILKNFKNKTFLKCEAPNYSGRFTCSWLVQRNMDLKFNIKSSSSSPDSRAVTCGMASLSAEKVTLDQRDYEKYSVSCQEDVTCPTAEETLPIELALEARQQNKYENYSTSFFIRDIIKPDPPKNLQMKPLKNSQVEVSWEYPDSWSTPHSYFSLKFFVRIQRKKEKMKETEEGCNQKGAFLVEKTSTEVQCKGGNVCVQAQDRYYNSSCSKWACVPCRVRSGGGGSGGGGSGGGGSRVIPVSGPARCLSQSRNLLKTTDDMVKTAREKLKHYSCTAEDIDHEDITRDQTSTLKTCLPLELHKNESCLATRETSSTTRGSCLPPQKTSLMMTLCLGSIYEDLKMYQTEFQAINAALQNHNHQQIILDKGMLVAIDELMQSLNHNGETLRQKPPVGEADPYRVKMKLCILLHAFSTRVVTINRVMGYLSSA"}, "B4": {"name": "Fc-IL12(mutein 3) (Fc fusion)", "chain": "ESKYGPPCPPCPAPPVAGPSVFLFPPKPKDTLMISRTPEVTCVVVDVSQEDPEVQFNWYVDGVEVHNAKTKPREEQFNSTYRVVSVLTVLHQDWLNGKEYKCKVSNKGLPSSIEKTISKAKGQPREPQVYTLPPSQEEMTKNQVSLTCLVKGFYPSDIAVEWESNGQPENNYKTTPPVLDSDGSFFLYSRLTVDKSRWQEGNVFSCSVMHEALHNHYTQKSLSLSLGKGGGGSGGGGSGGGGSMWELEKDVYVVEVDWTPDAPGETVNLTCDTPEEDDITWTSDQRHGVIGSGKTLTITVKEFLDAGQYTCHKGGETLSHSHLLLHKKENGIWSTEILKNFKNKTFLKCEAPNYSGRFTCSWLVQRNMDLKFNIKSSSSSPDSRAVTCGMASLSAEKVTLDQRDYEKYSVSCQEDVTCPTAEETLPIELALEARQQNKYENYSTSFFIRDIIKPDPPKNLQMKPLKNSQVEVSWEYPDSWSTPHSYFSLKFFVRIQRKKEKMKETEEGCNQKGAFLVEKTSTEVQCKGGNVCVQAQDRYYNSSCSKWACVPCRVRSGGGGSGGGGSGGGGSRVIPVSGPARCLSQSRNLLKTTDDMVKTAREKLKHYSCTAEDIDHEDITRDQTSTLKTCLPLELHKNESCLATRETSSTTRGSCLPPQKTSLMMTLCLGSIYEDLKMYQTEFQAINAALQNHNHQQIILDKGMLVAIDELMQSLNHNGETLRQKPPVGEADPRRVKMKLCILLHAFSTRVVTINRVMGYLSSA"}, "B5": {"name": "Fc-IL12(mutein 11) (Fc fusion)", "chain": "ESKYGPPCPPCPAPPVAGPSVFLFPPKPKDTLMISRTPEVTCVVVDVSQEDPEVQFNWYVDGVEVHNAKTKPREEQFNSTYRVVSVLTVLHQDWLNGKEYKCKVSNKGLPSSIEKTISKAKGQPREPQVYTLPPSQEEMTKNQVSLTCLVKGFYPSDIAVEWESNGQPENNYKTTPPVLDSDGSFFLYSRLTVDKSRWQEGNVFSCSVMHEALHNHYTQKSLSLSLGKGGGGSGGGGSGGGGSMWELEKDVYVVEVDWTPDAPGETVNLTCDTPEEDDITWTSDQRHGVIGSGKTLTITVKEFLDAGQYTCHKGGETLSHSHLLLHKKENGIWSTAILANFANATFLKCEAPNYSGRFTCSWLVQRNMDLKFNIKSSSSSPDSRAVTCGMASLSAEKVTLDQRDYEKYSVSCQEDVTCPTAEETLPIELALEARQQNKYENYSTSFFIRDIIKPDPPKNLQMKPLKNSQVEVSWEYPDSWSTPHSYFSLKFFVRIQRKKEKMKETEEGCNQKGAFLVEKTSTEVQCKGGNVCVQAQDRYYNSSCSKWACVPCRVRSGGGGSGGGGSGGGGSRVIPVSGPARCLSQSRNLLKTTDDMVKTAREKLKHYSCTAEDIDHEDITRDQTSTLKTCLPLELHKNESCLATRETSSTTRGSCLPPQKTSLMMTLCLGSIYEDLKMYQTEFQAINAALQNHNHQQIILDKGMLVAIDELMQSLNHNGETLRQKPPVGEADPYRVKMKLCILLHAFSTRVVTINRVMGYLSSA"}, "B6": {"name": "Fc-IL12(mutein 2) (Fc fusion)", "chain": "ESKYGPPCPPCPAPPVAGPSVFLFPPKPKDTLMISRTPEVTCVVVDVSQEDPEVQFNWYVDGVEVHNAKTKPREEQFNSTYRVVSVLTVLHQDWLNGKEYKCKVSNKGLPSSIEKTISKAKGQPREPQVYTLPPSQEEMTKNQVSLTCLVKGFYPSDIAVEWESNGQPENNYKTTPPVLDSDGSFFLYSRLTVDKSRWQEGNVFSCSVMHEALHNHYTQKSLSLSLGKGGGGSGGGGSGGGGSMWELEKDVYVVEVDWTPDAPGETVNLTCDTPEEDDITWTSDQRHGVIGSGKTLTITVKEFLDAGQYTCHKGGETLSHSHLLLHKKENGIWSTEILKNFKNKTFLKCEAPNYSGRFTCSWLVQRNMDLKFNIKSSSSSPDSRAVTCGMASLSAEKVTLDQRDYEKYSVSCQEDVTCPTAEETLPIELALEARQQNKYENYSTSFFIRDIIKPDPPKNLQMKPLKNSQVEVSWEYPDSWSTPHSYFSLKFFVRIQRKKEKMKETEEGCNQKGAFLVEKTSTEVQCKGGNVCVQAQDRYYNSSCSKWACVPCRVRSGGGGSGGGGSGGGGSRVIPVSGPARCLSQSRNLLKTTDDMVKTAREKLKHYSCTAEDIDHEDITRDQTSTLKTCLPLELHKNESCLATRETSSTTRGSCLPPQKTSLMMTLCLGSIYEDLKMYQTEFQAINAALQNHNHQQIILDKGMLVAIDELMQSLNHNGETLRQKPPVGEADPVRVKMKLCILLHAFSTRVVTINRVMGYLSSA"}, "B7": {"name": "Fc-IL12(mutein 4) (Fc fusion)", "chain": "ESKYGPPCPPCPAPPVAGPSVFLFPPKPKDTLMISRTPEVTCVVVDVSQEDPEVQFNWYVDGVEVHNAKTKPREEQFNSTYRVVSVLTVLHQDWLNGKEYKCKVSNKGLPSSIEKTISKAKGQPREPQVYTLPPSQEEMTKNQVSLTCLVKGFYPSDIAVEWESNGQPENNYKTTPPVLDSDGSFFLYSRLTVDKSRWQEGNVFSCSVMHEALHNHYTQKSLSLSLGKGGGGSGGGGSGGGGSMWELEKDVYVVEVDWTPDAPGETVNLTCDTPEEDDITWTSDQRHGVIGSGKTLTITVKEFLDAGQYTCHKGGETLSHSHLLLHKKENGIWSTEILKNFKNKTFLKCEAPNYSGRFTCSWLVQRNMDLKFNIKSSSSSPDSRAVTCGMASLSAEKVTLDQRDYEKYSVSCQEDVTCPTAEETLPIELALEARQQNKYENYSTSFFIRDIIKPDPPKNLQMKPLKNSQVEVSWEYPDSWSTPHSYFSLKFFVRIQRKKEKMKETEEGCNQKGAFLVEKTSTEVQCKGGNVCVQAQDRYYNSSCSKWACVPCRVRSGGGGSGGGGSGGGGSRVIPVSGPARCLSQSRNLLKTTDDMVKTAREKLKHYSCTAEDIDHEDITRDQTSTLKTCLPLELHKNESCLATRETSSTTRGSCLPPQKTSLMMTLCLGSIYEDLKMYQTEFQAINAALQNHNHQQIILDKGMLVAIDELMQSLNHNGETLRQKPPVGEADPERVKMKLCILLHAFSTRVVTINRVMGYLSSA"}}, "data": [{"target": "murine IL12 receptor complex (IL12Rβ1 and IL12Rβ2) (mouse, UniProt Q60837 20-738; P97378 24-874)", "sequence (Q60837 20-738, chain 1 of 2)": "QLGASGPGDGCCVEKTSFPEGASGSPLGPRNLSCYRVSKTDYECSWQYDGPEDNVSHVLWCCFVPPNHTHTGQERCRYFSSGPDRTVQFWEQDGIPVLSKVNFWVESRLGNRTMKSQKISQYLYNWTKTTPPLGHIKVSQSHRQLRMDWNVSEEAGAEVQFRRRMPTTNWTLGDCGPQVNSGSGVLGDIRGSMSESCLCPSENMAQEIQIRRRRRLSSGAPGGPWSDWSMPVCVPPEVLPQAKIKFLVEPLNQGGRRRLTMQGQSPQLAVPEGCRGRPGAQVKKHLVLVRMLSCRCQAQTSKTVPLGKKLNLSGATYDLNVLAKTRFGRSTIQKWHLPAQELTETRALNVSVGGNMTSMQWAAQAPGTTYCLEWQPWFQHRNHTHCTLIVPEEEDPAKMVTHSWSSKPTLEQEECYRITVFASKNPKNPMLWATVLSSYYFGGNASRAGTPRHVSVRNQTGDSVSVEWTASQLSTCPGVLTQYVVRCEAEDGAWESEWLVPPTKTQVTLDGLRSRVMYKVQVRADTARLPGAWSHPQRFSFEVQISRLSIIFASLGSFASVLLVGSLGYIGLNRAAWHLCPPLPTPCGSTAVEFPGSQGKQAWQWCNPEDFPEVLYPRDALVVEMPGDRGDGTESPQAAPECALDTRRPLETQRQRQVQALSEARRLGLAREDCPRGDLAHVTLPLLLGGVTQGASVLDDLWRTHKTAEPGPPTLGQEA", "sequence (P97378 24-874, chain 2 of 2)": "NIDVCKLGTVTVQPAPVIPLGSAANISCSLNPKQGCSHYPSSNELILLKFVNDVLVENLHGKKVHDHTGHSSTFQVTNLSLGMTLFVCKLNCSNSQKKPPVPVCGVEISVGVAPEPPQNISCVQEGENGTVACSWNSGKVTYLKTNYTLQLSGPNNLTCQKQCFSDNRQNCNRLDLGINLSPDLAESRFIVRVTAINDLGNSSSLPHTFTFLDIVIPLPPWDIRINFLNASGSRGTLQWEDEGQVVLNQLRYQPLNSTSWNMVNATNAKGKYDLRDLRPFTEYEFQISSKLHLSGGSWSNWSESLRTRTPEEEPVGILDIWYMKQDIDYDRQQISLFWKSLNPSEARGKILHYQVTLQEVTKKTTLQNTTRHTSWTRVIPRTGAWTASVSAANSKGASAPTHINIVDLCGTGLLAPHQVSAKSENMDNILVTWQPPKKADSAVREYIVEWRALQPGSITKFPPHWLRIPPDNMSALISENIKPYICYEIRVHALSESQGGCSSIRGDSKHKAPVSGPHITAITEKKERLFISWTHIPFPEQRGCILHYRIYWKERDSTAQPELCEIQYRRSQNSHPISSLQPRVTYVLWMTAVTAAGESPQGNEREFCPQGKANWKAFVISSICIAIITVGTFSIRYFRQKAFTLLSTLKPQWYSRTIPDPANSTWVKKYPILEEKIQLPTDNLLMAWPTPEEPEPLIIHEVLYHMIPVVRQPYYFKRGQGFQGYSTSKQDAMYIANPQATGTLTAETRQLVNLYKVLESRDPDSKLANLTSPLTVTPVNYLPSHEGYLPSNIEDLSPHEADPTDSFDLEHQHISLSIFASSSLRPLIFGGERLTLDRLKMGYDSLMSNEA", "experiment": "cell-based or functional assay", "units": {"Fold induction at 20 nM; STAT3-Luc reporter, CTLL2/STAT3-Luc cells": "fold", "Max fold induction; STAT3-Luc reporter, CTLL2/STAT3-Luc cells": "fold", "EC50 (M); STAT3-Luc reporter, CTLL2/STAT3-Luc cells": "M"}, "values": [{"binder": "B1", "Fold induction at 20 nM; STAT3-Luc reporter, CTLL2/STAT3-Luc cells": 1.04, "Max fold induction; STAT3-Luc reporter, CTLL2/STAT3-Luc cells": 1.1}, {"binder": "B2", "EC50 (M); STAT3-Luc reporter, CTLL2/STAT3-Luc cells": "1.76e-10", "Fold induction at 20 nM; STAT3-Luc reporter, CTLL2/STAT3-Luc cells": 4.52, "Max fold induction; STAT3-Luc reporter, CTLL2/STAT3-Luc cells": 4.52}, {"binder": "B3", "EC50 (M); STAT3-Luc reporter, CTLL2/STAT3-Luc cells": "8.05e-10", "Fold induction at 20 nM; STAT3-Luc reporter, CTLL2/STAT3-Luc cells": 10, "Max fold induction; STAT3-Luc reporter, CTLL2/STAT3-Luc cells": 10.1}, {"binder": "B4", "Fold induction at 20 nM; STAT3-Luc reporter, CTLL2/STAT3-Luc cells": 1.06, "Max fold induction; STAT3-Luc reporter, CTLL2/STAT3-Luc cells": 1.11}, {"binder": "B5", "EC50 (M); STAT3-Luc reporter, CTLL2/STAT3-Luc cells": "1.33e-09", "Fold induction at 20 nM; STAT3-Luc reporter, CTLL2/STAT3-Luc cells": 8.93, "Max fold induction; STAT3-Luc reporter, CTLL2/STAT3-Luc cells": 10.2}, {"binder": "B6", "EC50 (M); STAT3-Luc reporter, CTLL2/STAT3-Luc cells": "2.6e-10", "Fold induction at 20 nM; STAT3-Luc reporter, CTLL2/STAT3-Luc cells": 5.41, "Max fold induction; STAT3-Luc reporter, CTLL2/STAT3-Luc cells": 5.9}, {"binder": "B7", "Fold induction at 20 nM; STAT3-Luc reporter, CTLL2/STAT3-Luc cells": 1.12, "Max fold induction; STAT3-Luc reporter, CTLL2/STAT3-Luc cells": 1.16}]}]}
